According to US20210396761A1 (AICURIS, published 2021):

How the values were obtained:
[1] = target: T1, VZV Orf24, C-terminally fused to the HA epitope (pcDNA-Orf24-HA, pHM4695) (varicella zoster virus (VZV) strain …, UniProt P09280 1-269); assay: coimmunoprecipitation, transiently transfected 293T cells
T1 sequence: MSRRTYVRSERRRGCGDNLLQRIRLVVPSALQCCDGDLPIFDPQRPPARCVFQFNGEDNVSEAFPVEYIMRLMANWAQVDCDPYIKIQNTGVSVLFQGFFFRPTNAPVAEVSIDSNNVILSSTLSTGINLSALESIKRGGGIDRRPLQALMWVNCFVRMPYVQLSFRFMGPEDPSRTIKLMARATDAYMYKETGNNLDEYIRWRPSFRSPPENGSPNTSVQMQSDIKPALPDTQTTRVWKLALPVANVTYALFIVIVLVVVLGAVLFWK

[2] = target: T2, HCMV pUL50, C-terminally fused to the HA epitope (pcDNA-UL50-HA, pHM2589) (human cytomegalovirus (HCMV) strain …, UniProt P16791 1-397); assay: as above
T2 sequence: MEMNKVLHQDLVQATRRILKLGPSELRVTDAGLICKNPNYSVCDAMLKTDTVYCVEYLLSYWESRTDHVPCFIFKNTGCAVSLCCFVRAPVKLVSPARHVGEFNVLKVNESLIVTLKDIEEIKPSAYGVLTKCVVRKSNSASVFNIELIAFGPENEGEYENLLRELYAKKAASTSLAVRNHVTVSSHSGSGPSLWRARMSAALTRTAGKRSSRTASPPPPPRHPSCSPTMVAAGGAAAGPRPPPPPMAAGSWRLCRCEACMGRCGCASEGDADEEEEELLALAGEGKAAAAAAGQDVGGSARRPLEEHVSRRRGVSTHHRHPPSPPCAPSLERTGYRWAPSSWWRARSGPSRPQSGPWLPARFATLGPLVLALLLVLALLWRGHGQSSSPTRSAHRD

[3] = target: the molecule itself; assay: analytical size exclusion chromatography (Superdex 75 10/300)
[4] = target: T3, pUL53 (50-292) (human cytomegalovirus (HCMV) strain …, UniProt P16794 50-292); assay: analytical size exclusion chromatography, coproduced in E. coli and also mixed in vitro
T3 sequence: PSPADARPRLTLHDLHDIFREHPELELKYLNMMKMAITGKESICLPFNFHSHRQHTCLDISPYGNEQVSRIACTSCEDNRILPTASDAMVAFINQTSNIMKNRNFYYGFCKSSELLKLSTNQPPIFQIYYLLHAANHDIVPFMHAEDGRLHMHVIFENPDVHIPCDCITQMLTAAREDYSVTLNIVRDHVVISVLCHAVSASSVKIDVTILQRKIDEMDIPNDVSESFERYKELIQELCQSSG

[5] = target: T4, EBV BFLF2, C-terminally fused to the Flag epitope (pcDNA-BFLF2-Flag, pHM4698) (Epstein-Barr virus (EBV) strain B95-8, UniProt P0CK47 1-318); assay: coimmunoprecipitation, transiently transfected 293T cells
T4 construct: also called Flag-tagged BFLF2
T4 sequence: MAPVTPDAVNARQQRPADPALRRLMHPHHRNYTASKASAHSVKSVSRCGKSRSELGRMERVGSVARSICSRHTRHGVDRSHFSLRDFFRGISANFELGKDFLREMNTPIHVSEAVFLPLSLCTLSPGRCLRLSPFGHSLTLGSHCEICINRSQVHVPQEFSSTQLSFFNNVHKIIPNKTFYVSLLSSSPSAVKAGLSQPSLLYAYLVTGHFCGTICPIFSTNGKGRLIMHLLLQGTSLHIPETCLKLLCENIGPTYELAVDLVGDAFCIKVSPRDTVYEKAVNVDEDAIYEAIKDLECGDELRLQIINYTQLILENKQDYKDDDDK

B1: MCMV pM53, C-terminally fused to the Flag epitope (pcDNA-M53-Flag, pHM4718) (other)
chain: MFRSPEGEERDAADREEEEGGEARRRSRMMMSPRRVKRARHRPAGSGLRTPLRSPSACRCSSPSPERQWQQRRRAEKRSTTPTDPPPPPKRSAASAAAGAAAPESEYLNVKLSELHDVFQRHPDLEQKYLKIMKLPITGKESIRLPFDFKSHRQHTCLDLSPYGNDQVSRSACTTCKETTRLPTASDSMVAFINQTSNVMKHRKFYFGFRKNMELLKMAANQPQLFQIYYIVQSCVQEIVPLIYYDREMAHMQLIFEKETVHIPSQCIEQILTVAKDAYGVSLDIAHQRITLTARCLRLESSSLRIDVLMLQRKVDELEIPNETNEKFESYSLDYKDDDDK
notes: also called pM53-Flag; Flag-tagged pM53
- binding result [1]: no binding
- binding result [2]: binds

B2: pUL50 (1-181) (other)
chain: MEMNKVLHQDLVQATRRILKLGPSELRVTDAGLICKNPNYSVCDAMLKTDTVYCVEYLLSYWESRTDHVPCFIFKNTGCAVSLCCFVRAPVKLVSPARHVGEFNVLKVNESLIVTLKDIEEIKPSAYGVLTKCVVRKSNSASVFNIELIAFGPENEGEYENLLRELYAKKAASTSLAVRNH
- binding result [3]: no binding
- binding result [4]: binds

B3: MCMV pM50, C-terminally fused to the HA epitope (pcDNA-M50-HA, pHM4717) (other)
chain: MEIDKNVGADLISNTRRILRLDENELRITDTALICKNPNYSLCDAMLTTDIVYPVEYLLSYWECRSGRTACFVFKNTGCRVSLSCYIGFPERLKDLKRVCDFNFLSVNEALVVTLADIERIKPCDKGVLTNCVVRKSNSGMSYNIEVVAFGPDNEAEYQALLRDIYARRMTSVPTDCGSLICRRARCLAAAPPRRPPPPPPPGQRWGSLRKHGPVLTRRYAGGGGAAKNQPAAASPTSTSTSSPAAPSRDQDQTQRPPPAGDTNVTAAETTYSERTISFLTRHANAIHCALILAAAIALVLLWLLYWHAARSAGHP
notes: also called pM50-HA; HA-tagged pM50
- binding result [5]: no binding
